Source: publication PMC9242648, “Hypertrophic cardiomyopathy mutations in the pliant and light chain-binding regions of the lever arm of human β-cardiac myosin have divergent effects on myosin function” (eLife, 2022)

What was measured:
[1] = molecular target: T1, human β-cardiac myosin 2-hep heavy chain, wild type (human | ); assay: light chain loading gel assay (Coomassie SDS-PAGE densitometry of the co-purified complex); human RLC purified from E. coli added to myosin held on anti-FLAG resin after depletion of native mouse RLC (>2.5 hr, 4°C); buffer exchanged 5x in a 50 or 100 kDa filter to remove unbound light chains; dilution series 10-1 pmol per lane, 700 nm scan, slope of light chain over slope of heavy chain; conditions: both partners purified
T1 chain: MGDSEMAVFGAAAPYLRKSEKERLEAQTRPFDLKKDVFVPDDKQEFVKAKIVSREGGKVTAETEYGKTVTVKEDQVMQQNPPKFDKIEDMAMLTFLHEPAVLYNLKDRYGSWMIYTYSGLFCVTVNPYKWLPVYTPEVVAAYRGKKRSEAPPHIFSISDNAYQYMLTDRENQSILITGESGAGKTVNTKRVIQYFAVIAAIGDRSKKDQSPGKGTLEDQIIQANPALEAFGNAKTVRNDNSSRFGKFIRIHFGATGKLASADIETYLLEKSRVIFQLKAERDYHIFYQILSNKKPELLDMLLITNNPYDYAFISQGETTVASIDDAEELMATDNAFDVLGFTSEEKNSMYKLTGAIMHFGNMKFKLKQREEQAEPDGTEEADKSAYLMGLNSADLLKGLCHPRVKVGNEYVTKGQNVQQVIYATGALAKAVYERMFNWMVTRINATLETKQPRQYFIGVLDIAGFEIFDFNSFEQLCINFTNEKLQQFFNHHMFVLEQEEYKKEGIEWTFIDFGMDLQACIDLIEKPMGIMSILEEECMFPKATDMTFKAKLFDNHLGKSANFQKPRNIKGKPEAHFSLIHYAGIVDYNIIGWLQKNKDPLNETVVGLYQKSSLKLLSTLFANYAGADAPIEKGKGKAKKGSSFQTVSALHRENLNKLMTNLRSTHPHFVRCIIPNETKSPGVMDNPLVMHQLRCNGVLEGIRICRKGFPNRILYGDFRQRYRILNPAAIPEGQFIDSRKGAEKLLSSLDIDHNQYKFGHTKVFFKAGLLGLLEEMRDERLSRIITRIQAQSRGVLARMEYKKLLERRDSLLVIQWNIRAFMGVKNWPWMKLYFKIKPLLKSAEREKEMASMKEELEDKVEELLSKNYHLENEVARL

[2] = molecular target: T1, human β-cardiac myosin 2-hep heavy …; assay: light chain loading gel assay (Coomassie SDS-PAGE densitometry of the co-purified complex); ELC co-expressed with the 2-hep heavy chain in C2C12 cells and purified through the FLAG tag of the ELC; buffer exchanged 5x in a 50 or 100 kDa filter to remove unbound light chains; dilution series 10-1 pmol per lane, 700 nm scan, slope of light chain over slope of heavy chain; conditions: partners not purified

B1: human regulatory light chain (MYL2) (natural protein, UniProt P10916 1-166, looked up)
chain: MAPKKAKKRAGGANSNVFSMFEQTQIQEFKEAFTIMDQNRDGFIDKNDLRDTFAALGRVNVKNEEIDEMIKEAPGPINFTVFLTMFGEKLKGADPEETILNAFKVFDPEGKGVLKADYVREMLTTQAERFSKEEVDQMFAAFPPDVTGNLDYKNLVHIITHGEEKD
notes: human regulatory light chain, MYL2; N-terminal His-TEV tag added; also called RLC; source: E. coli, purified (as in Nag et al., 2017)
[1]
  RLC/HC ratio (Coomassie band density, light chain over heavy chain): 0.11

B2: human essential light chain (MYL3) (natural protein)
chain: not shown
notes: human essential light chain, MYL3; N-terminal FLAG tag followed by a TEV protease site; TEV protease cleaved the ELC-myosin complex off the anti-FLAG resin; also called ELC; not shown: FLAG, N-terminal, cleaved
[2]
  ELC/HC ratio (Coomassie band density, light chain over heavy chain): 0.19
